The target in this test is HLA-Cw4 on LCL 721.221-Cw4 cells (human). Put plainly: cell-based or functional assay.

Regarding “KIR2DL1 expressed on YTS-2DL1 NK cells (from UniProt P43626 22-348)”, the killing of LCL 721.221-Cw4 cells by YTS-2DL1 in the absence of any anti-KIR mAb came out at 5%.

The record behind these values is patent publication US20090075340A1.
